Target: 220 kDa ankyrin-B-GFP
Test: proximity ligation

Question: Which PLA signal does the source give for “NaV1.2 II-III loop-3xHA (wild type) (from UniProt Q99250 991-1211) (domain or fragment)” here?
Answer: Its PLA signal is 11.6 a.u.

Source: PMC11097922
